The values below come from US5914254.

Assay [1] has as its target insulin substrate.
The target in assay [2] is 125I-radiolabeled IGF-I. The assay is described as follows: dot blot of serial dilutions of crude soluble fractions probed with 125I-IGF-I; tells of the amount of active protein, not of affinity.
Assay [3] addresses native dsbA (with leader)-biotinylation peptide (pDM25453) (E. coli) (UniProt P0AEG4).

In turn, “leaderless E. coli DsbA (pYZ9206) (from UniProt P0AEG4) (enzyme)” came in with an Oxidoreductase Activity of DsbA, Activity (U/min-mg), TEX fraction in assay [1] of 0.1 U/min-mg.

Turning to “DsbA-ubiquitin-IGFBP-3 fusion (pDM15427) (from UniProt P0AEG4)”, the fold increase in the recovery of bioactive IGFBP-3 (IGF-I binding activity of the crude extract, against the ubiquitin-IGFBP-3 fusion) in assay [2] turned out to be 16 fold.

In the case of “E. coli biotin holoenzyme synthetase (from UniProt P06709)”, the efficiency of in vivo biotinylation of the Ni-NTA purified proteins of pDM25450 and pDM25453 in assay [3] is < 10 fold.

With “E. coli DsbA expressed with its leader sequence (pYZ9205) (from UniProt P0AEG4) (enzyme)”, the Oxidoreductase Activity of DsbA, Activity (U/min-mg), TEX fraction in assay [1] amounted to 0.089 U/min-mg.
